Assay results from patent publication US20190077860A1 (EISAI R AND D MANAGEMENT, published 2019).
Where a chain is given by its changes, count along the chain named. Each block holds one binder with its values, some of them ahead of it.

Experiments:
Assay in all cases: ELISA
[1] = biological target: T1, human EphA2 extracellular region-SEAP-His protein (human, UniProt P29317 24-537)
T1 construct: extracellular domain; also called hEphA2-SEAP-His

[2] = biological target: T2, human EphB1 extracellular region-SEAP-His protein (human, UniProt P54762 18-540)
T2 construct: extracellular domain; also called hEphB1-SEAP-His
T2 sequence (looked up): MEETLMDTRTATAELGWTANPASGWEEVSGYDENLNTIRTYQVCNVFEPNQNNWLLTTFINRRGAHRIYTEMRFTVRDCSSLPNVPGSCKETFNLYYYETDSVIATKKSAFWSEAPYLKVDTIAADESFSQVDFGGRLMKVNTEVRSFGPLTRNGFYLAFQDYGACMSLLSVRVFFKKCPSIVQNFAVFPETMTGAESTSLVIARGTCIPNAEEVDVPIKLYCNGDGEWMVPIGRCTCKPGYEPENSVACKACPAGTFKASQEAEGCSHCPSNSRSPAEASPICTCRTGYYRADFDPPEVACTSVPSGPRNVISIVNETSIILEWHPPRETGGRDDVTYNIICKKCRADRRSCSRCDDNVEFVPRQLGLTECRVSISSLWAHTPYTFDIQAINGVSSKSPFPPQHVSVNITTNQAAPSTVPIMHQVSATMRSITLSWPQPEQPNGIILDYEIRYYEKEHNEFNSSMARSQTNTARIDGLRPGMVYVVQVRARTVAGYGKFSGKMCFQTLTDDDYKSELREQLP

[3] = biological target: T3, human EphA8 extracellular region-SEAP-His protein (human, UniProt P29322 28-542)
T3 construct: extracellular domain; also called hEphA8-SEAP-His
T3 sequence (looked up): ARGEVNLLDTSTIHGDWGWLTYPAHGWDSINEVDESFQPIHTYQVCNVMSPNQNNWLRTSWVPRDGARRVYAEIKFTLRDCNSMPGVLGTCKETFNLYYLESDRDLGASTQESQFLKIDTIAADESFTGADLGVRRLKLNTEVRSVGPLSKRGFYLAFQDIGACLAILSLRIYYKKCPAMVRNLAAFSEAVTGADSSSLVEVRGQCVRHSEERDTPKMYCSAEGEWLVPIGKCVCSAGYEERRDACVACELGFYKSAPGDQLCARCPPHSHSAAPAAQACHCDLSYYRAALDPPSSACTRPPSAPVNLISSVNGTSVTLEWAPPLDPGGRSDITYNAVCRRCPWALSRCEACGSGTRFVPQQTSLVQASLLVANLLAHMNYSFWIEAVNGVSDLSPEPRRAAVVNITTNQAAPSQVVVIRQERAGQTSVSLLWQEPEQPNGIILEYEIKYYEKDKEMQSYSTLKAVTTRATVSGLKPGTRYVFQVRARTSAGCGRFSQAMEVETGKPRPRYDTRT

[4] = biological target: T4, human EphA1 extracellular region-SEAP-His protein (human, UniProt P21709 26-547)
T4 construct: extracellular domain; also called hEphA1-SEAP-His
T4 sequence (looked up): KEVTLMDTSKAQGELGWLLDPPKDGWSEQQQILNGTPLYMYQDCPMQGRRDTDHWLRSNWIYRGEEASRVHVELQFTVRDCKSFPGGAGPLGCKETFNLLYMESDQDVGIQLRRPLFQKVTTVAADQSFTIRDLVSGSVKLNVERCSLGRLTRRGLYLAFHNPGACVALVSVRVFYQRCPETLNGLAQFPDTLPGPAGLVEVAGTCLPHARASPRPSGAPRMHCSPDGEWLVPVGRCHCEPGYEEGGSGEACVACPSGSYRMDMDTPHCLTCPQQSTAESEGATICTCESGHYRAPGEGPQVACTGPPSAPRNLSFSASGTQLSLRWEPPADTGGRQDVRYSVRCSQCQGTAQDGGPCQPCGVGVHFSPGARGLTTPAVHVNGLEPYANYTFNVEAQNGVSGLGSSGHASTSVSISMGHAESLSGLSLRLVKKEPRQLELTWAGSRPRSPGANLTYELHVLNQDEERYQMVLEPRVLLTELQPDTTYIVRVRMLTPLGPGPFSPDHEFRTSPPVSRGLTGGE

[5] = biological target: T5, human EphA3 extracellular region-SEAP-His protein (human, UniProt P29320 21-541)
T5 construct: extracellular domain; also called hEphA3-SEAP-His
T5 sequence (looked up): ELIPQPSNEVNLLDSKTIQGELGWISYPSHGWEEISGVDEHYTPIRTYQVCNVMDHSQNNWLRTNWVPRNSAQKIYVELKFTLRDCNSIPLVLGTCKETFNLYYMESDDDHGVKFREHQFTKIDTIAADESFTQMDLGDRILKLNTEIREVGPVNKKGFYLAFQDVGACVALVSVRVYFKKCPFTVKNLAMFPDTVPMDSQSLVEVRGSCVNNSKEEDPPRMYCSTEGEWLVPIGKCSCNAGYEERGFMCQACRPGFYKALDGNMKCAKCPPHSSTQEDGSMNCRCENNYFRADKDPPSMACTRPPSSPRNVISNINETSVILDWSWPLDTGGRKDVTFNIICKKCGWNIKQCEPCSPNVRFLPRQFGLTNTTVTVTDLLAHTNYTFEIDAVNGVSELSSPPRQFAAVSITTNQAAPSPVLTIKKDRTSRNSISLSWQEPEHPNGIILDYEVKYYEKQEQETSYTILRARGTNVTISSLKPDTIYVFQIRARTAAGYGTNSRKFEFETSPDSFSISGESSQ

[6] = biological target: T6, human EphA4 extracellular region-SEAP-His protein (human, UniProt P54764 20-547)
T6 construct: also called hEphA4-SEAP-His
T6 sequence (P54764 20-547): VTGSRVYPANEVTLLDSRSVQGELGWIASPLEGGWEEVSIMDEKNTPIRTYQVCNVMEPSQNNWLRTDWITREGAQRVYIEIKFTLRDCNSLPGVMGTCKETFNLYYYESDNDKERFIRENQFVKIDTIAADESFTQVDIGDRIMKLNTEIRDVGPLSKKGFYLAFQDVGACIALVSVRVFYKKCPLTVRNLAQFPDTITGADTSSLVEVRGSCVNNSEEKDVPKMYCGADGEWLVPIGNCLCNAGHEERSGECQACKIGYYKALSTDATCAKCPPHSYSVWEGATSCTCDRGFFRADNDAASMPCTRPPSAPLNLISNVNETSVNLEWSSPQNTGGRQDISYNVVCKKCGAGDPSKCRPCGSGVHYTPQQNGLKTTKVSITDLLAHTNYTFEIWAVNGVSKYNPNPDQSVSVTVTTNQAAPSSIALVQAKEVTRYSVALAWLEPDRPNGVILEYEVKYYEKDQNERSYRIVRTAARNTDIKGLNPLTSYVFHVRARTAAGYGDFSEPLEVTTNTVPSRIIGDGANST

T1 sequence (P29317 24-537): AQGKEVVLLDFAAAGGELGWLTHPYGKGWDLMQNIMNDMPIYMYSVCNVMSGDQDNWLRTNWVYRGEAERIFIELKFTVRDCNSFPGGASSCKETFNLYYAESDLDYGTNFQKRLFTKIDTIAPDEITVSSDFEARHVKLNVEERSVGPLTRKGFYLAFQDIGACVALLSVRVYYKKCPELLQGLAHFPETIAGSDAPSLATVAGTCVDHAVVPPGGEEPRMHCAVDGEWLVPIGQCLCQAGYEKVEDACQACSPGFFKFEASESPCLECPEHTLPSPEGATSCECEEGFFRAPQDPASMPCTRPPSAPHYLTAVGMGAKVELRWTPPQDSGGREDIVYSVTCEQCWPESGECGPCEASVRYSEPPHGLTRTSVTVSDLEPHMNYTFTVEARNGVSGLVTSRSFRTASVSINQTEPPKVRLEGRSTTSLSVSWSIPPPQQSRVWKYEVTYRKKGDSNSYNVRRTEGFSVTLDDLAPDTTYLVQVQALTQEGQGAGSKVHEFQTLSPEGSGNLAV

A450 as % of hEphA4-SEAP-His [1]: 5.4% | A450 as % of hEphA4-SEAP-His [2]: 5.4% | A450 as % of hEphA4-SEAP-His [3]: 5.8% | A450 as % of hEphA4-SEAP-His [4]: 5.4% | A450 as % of hEphA4-SEAP-His [5]: 5.4% | A450 as % of hEphA4-SEAP-His [6]: 100%
B2: humanized antibody No. 82 (antibody, human IgG1, kappa)
heavy: QVQLVQSGSELKKPGASVKVSCKASGYTFTDYSMHWVRQAPGQGLKWMGWINTETGEPTYAQGFTGRFVFSLDTSVSTAYLQISSLKAEDTAVYYCARIPLYYYGSRYWYFDVWGQGTTVTVSSASTKGPSVFPLAPSSKSTSGGTAALGCLVKDYFPEPVTVSWNSGALTSGVHTFPAVLQSSGLYSLSSVVTVPSSSLGTQTYICNVNHKPSNTKVDKRVEPKSCDKTHTCPPCPAPPAAAPSVFLFPPKPKDTLMISRTPEVTCVVVDVSHEDPEVQFNWYVDGVEVHNAKTKPREEQFNSTFRVVSVLTVVHQDWLNGKEYKCKVSNKGLPAPIEKTISKTKGQPREPQVYTLPPSREEMTKNQVSLTCLVKGFYPSDIAVEWESNGQPENNYKTTPPMLDSDGSFFLYSKLTVDKSRWQQGNVFSCSVMHEALHNHYTQKSLSLSPG
light: DIQMTQSPSSLSASVGDRVTITCRASENIYRNLAWYQQKPGKAPKLLLYAATNLADGVPSRFSGSGSGTDYTLTISSLQSEDFATYYCQHFWGTPWTFGQGTKVEIKRTVAAPSVFIFPPSDEQLKSGTASVVCLLNNFYPREAKVQWKVDNALQSGNSQESVTEQDSKDSTYSLSSTLTLSKADYEKHKVYACEVTHQGLSSPVTKSFNRGEC
notes: human Ig kappa; also called L1-5/HA2

A450 as % of hEphA4-SEAP-His [1]: 4.9% | A450 as % of hEphA4-SEAP-His [2]: 5.2% | A450 as % of hEphA4-SEAP-His [3]: 5.3% | A450 as % of hEphA4-SEAP-His [4]: 5.2% | A450 as % of hEphA4-SEAP-His [5]: 4.9% | A450 as % of hEphA4-SEAP-His [6]: 100%
B3: humanized antibody No. 84 (antibody, human IgG1, kappa)
heavy: B2 heavy with K46E, Q62D, G63D, T65K
light: B2 light
notes: human Ig kappa; also called L1-5/HK1

A450 as % of hEphA4-SEAP-His [1]: 5.1% | A450 as % of hEphA4-SEAP-His [2]: 5% | A450 as % of hEphA4-SEAP-His [3]: 5.5% | A450 as % of hEphA4-SEAP-His [4]: 5% | A450 as % of hEphA4-SEAP-His [5]: 5.1% | A450 as % of hEphA4-SEAP-His [6]: 100%
B5: humanized antibody No. 85 (antibody, human IgG1, kappa)
heavy: B2 heavy with Q62D, G63D, T65K
light: B2 light
notes: human Ig kappa; also called L1-5/HK2

The remaining lines, values behind:

B1: humanized antibody No. 67 (antibody, human IgG1, kappa)
heavy: B2 heavy with V2I
light: B2 light with L48V, S80P
notes: human Ig kappa; also called L1-4/HA4
A450 as % of hEphA4-SEAP-His [1]: 4.6% | A450 as % of hEphA4-SEAP-His [2]: 4.6% | A450 as % of hEphA4-SEAP-His [3]: 4.7% | A450 as % of hEphA4-SEAP-His [4]: 4.6% | A450 as % of hEphA4-SEAP-His [5]: 4.8% | A450 as % of hEphA4-SEAP-His [6]: 100%

B4: humanized antibody No. 77 (antibody, human IgG1, kappa)
heavy: B2 heavy with K46E, Q62D, G63D, T65K
light: B2 light with L48V, S80P
notes: human Ig kappa; also called L1-4/HK1
A450 as % of hEphA4-SEAP-His [1]: 4.5% | A450 as % of hEphA4-SEAP-His [2]: 4.6% | A450 as % of hEphA4-SEAP-His [3]: 4.8% | A450 as % of hEphA4-SEAP-His [4]: 4.5% | A450 as % of hEphA4-SEAP-His [5]: 4.5% | A450 as % of hEphA4-SEAP-His [6]: 100%

B6: humanized antibody No. 83 (antibody, human IgG1, kappa)
heavy: B2 heavy with V2I
light: B2 light
notes: human Ig kappa; also called L1-5/HA4
A450 as % of hEphA4-SEAP-His [1]: 5.8% | A450 as % of hEphA4-SEAP-His [2]: 5.6% | A450 as % of hEphA4-SEAP-His [3]: 6% | A450 as % of hEphA4-SEAP-His [4]: 5.7% | A450 as % of hEphA4-SEAP-His [5]: 5.7% | A450 as % of hEphA4-SEAP-His [6]: 100%

B7: humanized antibody No. 78 (antibody, human IgG1, kappa)
heavy: B2 heavy with Q62D, G63D, T65K
light: B2 light with L48V, S80P
notes: human Ig kappa; also called L1-4/HK2
A450 as % of hEphA4-SEAP-His [1]: 4.9% | A450 as % of hEphA4-SEAP-His [2]: 5% | A450 as % of hEphA4-SEAP-His [3]: 5.4% | A450 as % of hEphA4-SEAP-His [4]: 6.6% | A450 as % of hEphA4-SEAP-His [5]: 5.1% | A450 as % of hEphA4-SEAP-His [6]: 100%
